Reference: publication PMC7851051
pKd: −log10 of the molar value. Where two headings read alike, the source gives them in different places.

Experiments:
[1] = biological target: LLO118int single-chain TCR (scTCR), displayed on yeast (mouse); assay: flow cytometry on cells
[2] = biological target: LLO118int single-chain TCR (scTCR), displayed on yeast (mouse); assay: flow cytometry on cells; remark: listed apart in the source
[3] = biological target: LLO118low single-chain TCR (scTCR), displayed on yeast (mouse); assay: flow cytometry on cells
[4] = biological target: LLO56low single-chain TCR (scTCR), displayed on yeast (mouse); assay: flow cytometry on cells
[5] = biological target: LLO118_(high) single-chain TCR (scTCR), displayed on yeast (mouse); assay: flow cytometry on cells; scTCR displayed on yeast stained with LLO_(190-201)/I-A^b tetramer; histograms (Figure 1C)
[6] = biological target: LLO56int single-chain TCR (scTCR), displayed on yeast (mouse); assay: as above
[7] = biological target: LLO56int single-chain TCR (scTCR), displayed on yeast (mouse); assay: flow cytometry on cells; tetramer decay on yeast-displayed scTCR as above, second round with lower levels of MHC inhibiting-antibody (Figure 2D); multivalent half-life
[8] = biological target: LLO118_(high) single-chain TCR (scTCR), displayed on yeast (mouse); assay: flow cytometry on cells; tetramer decay on yeast-displayed scTCR: 6.5 µg/ml tetramer, 1.5 h, room temperature, washed, then anti-mouse MHC class II (M5/114.15.2) added and tetramer followed for 2-60 min; first round (Figure 2C); multivalent half-life
[9] = biological target: LLO56int single-chain TCR (scTCR), displayed on yeast (mouse); assay: as above
[10] = biological target: LLO118_(high) single-chain TCR (scTCR), displayed on yeast (mouse); assay: flow cytometry on cells; tetramer titration on yeast-displayed scTCR: 1x10^6 induced cells, 0.152 nM to 12.16 nM tetramer, 1.5 h, room temperature; MFI normalised; KD = 50% maximum binding concentration, one site-specific fit; multivalent avidity; percent of cells bound (Figure 2B)
[11] = biological target: LLO56int single-chain TCR (scTCR), displayed on yeast (mouse); assay: as above

LLO_(190-201)/I-A^b tetramer (peptide-MHC)
other [1]: 6.7 min | pKd [2]: 7.35 | other [2]: 24.5% | other [3]: 1.1% | other [4]: 0.75% | log better tetramer binding than LLO118int [5]: 1 log | log better tetramer binding than LLO118low [5]: 2.5 log | log better tetramer binding than LLO56low [6]: 1.5 log | t1/2 [7]: 3.5 min | t1/2 [8]: 165 m | t1/2 [9]: 1 m | pKd [10]: 8.13 | percent of cells bound by tetramer [10]: 43.3% | pKd [11]: 7.41 | percent of cells bound by tetramer [11]: 12.6%
